Test results from patent publication EP4471049A1 (Zealand Pharma A/S, priority 2023, dated 2024).
Each block holds one molecule with its values, some of them ahead of it. *1 amine or outer side, *2 acyl side, *3 side chain or, on linkers, in order; H or OH if unused. Where a SMILES comes first, the peptide text is derived from it. Bridges are numbered along the chain shown (N, C = ends). Primed or numbered codes have the meaning given here. Where no end group is shown, it is not given here. [ ]: non-standard residue; d: D form. 4‑Aminomethyl‑phenylacetyl = 4-aminomethyl-phenylacetyl unit, its amine closes the lactam, O=C(Cc1ccc(CN[*:1])cc1)[*:2]; Q(pyrrolidin)(3) = Gln whose side-chain amide N is in a pyrrolidine ring, O=C(CC[C@H](N[*:1])C(=O)[*:2])N1CCCC1; 2Nal = N[C@@H](Cc1ccc2ccccc2c1)C(=O)O; AEF = NCCOc1ccc(C[C@H](N)C(=O)O)cc1; X1 = O=C(Cc1ccc(CN[*:1])cc1)[*:2]; 3Pal = N[C@@H](Cc1cccnc1)C(=O)O; Cit = NC(=O)NCCC[C@H](N)C(=O)O; αMeL = CC(C)C[C@](C)(N)C(=O)O; NMeS = CN[C@@H](CO)C(=O)O; Orn = NCCC[C@H](N)C(=O)O; Q(Me) = not defined here; Dab = NCC[C@H](N)C(=O)O; βAla = NCCC(=O)O

How the values were obtained:
[1] = molecular target: T1, human IL-23R (Homo sapiens, UniProt Q5VWK5); assay: biochemical
T1 sequence (Q5VWK5 22-629): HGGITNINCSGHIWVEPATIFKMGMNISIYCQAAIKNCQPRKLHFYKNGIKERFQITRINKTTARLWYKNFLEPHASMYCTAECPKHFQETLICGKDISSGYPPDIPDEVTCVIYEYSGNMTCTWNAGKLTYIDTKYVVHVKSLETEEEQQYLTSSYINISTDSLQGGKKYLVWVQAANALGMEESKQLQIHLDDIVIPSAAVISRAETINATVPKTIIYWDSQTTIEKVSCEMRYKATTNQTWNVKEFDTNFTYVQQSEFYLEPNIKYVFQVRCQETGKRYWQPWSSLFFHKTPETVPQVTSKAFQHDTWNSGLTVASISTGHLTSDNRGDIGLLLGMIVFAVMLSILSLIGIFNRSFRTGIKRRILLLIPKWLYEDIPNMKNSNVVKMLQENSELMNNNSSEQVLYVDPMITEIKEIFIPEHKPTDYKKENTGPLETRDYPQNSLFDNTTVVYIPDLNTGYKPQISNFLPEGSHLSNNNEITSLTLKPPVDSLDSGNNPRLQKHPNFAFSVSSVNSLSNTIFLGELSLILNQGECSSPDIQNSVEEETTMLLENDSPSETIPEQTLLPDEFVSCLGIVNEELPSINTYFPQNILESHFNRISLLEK
Outline: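 Membranes from HEK293 cells stably expressing Nluc-tagged human IL-23R were incubated 2 h at room temperature with test compound and a fluorophore-labelled tracer. After substrate addition, loss of BRET (TAMRA over luciferase emission) reported tracer displacement. A 4PL fit gave IC50 values.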

[2] = Peptide stability in simulated intestinal fluid (SIF); format: in vitro ADME; conditions: pig, simulated intestinal fluid (SIF) with porcine pancreatin, 37 °C, pH 6.8, porcine pancreatin 10 g/L, 10 µM; for remaining at 4 h, 10 µM: read-out: SIF (% remaining 4 h)
Method: SGF was prepared by dissolving sodium chloride (0.2 g) in 50 mL of water. A volume of 0.7 mL of 10 M HCl was added to adjust the pH of the solution to 1.2 and the volume made up to 100 mL with water. […] SIF was prepared by dissolving monobasic potassium phosphate (0.68 g) in 50 mL of water and adjusting the pH to 6.8 with 1 M NaOH. The volume was subsequently made up to 100 mL with water. 200 mg porcine pancreatin (P1625, Sigma Aldrich) was gently dissolved into 20 mL preheated (37 °C) solution (10 g/L) immediately prior to the incubation.
The incubation was performed at 37 °C with gentle shaking. […] After the last timepoint, the sampling plate was mixed for 10 min on a shaking table and centrifuged 10 min at 2200 g. 70 µL resulting supernatant was diluted with 150 µL water, mixed and centrifugated before analysis by liquid chromatography high resolution mass spectrometry. […] Percent remaining at each timepoint was calculated relative to timepoint zero based on absolute peak areas.
Compounds with a SIF stability (after 4 h) above 70% are considered highly SIF stable.

[3] = molecular target: T2, Nluc-IL23R fusion protein (human, UniProt Q5VWK5 22-629); assay: BRET competition vs TAMRA-labelled peptide, Nluc-IL23R membranes
T2 construct: range 22-629; expressed with a secretion signal in HEK293 cells; used as crude membrane preparation; also called hIL-23R; human IL-23R; not shown: Nanoluc protein from the expression plasmid N1371 (Promega), N-terminal of IL-23R
T2 sequence (looked up): T1 sequence (Q5VWK5 22-629)

% displacement (hIL-23R binding) [1]: 97%
IC50 [1]: 0.012 nM
remaining at 4 h, 10 µM [2]: 41%
Molecule: CNC(=O)[C@H](Cc1cccnc1)NC(=O)[C@H](CO)NC(=O)[C@@H]1CCC(=O)NCc2ccc(cc2)CC(=O)N[C@@H](CO)C(=O)N[C@H]2CCC(=O)NCC[C@H](NC(=O)[C@H](CCC(N)=O)NC(=O)[C@H](Cc3c[nH]c4ccccc34)NC2=O)C(=O)N[C@@H](Cc2ccc(OCCN)cc2)C(=O)N[C@@H](Cc2ccc3ccccc3c2)C(=O)N[C@@](C)(CC(C)C)C(=O)N1 [Compound 31, [4-Aminomethyl-phenylacetyl](1c)*SE(2c)WQ[Dab](2c)[Y(2-aminoethoxy)][2-Nal][2-Me-Leu]E(1c)S[3-(3-Pyridyl)-Ala]-[NHMe]] ([X1]SEWQ[Dab][AEF][2Nal][αMeL]ES[3Pal]-NHMe; lactam 3-6, N-10)

% displacement (hIL-23R binding) [1]: 104%
IC50 [1]: 0.28 nM
remaining at 1 h, 10 µM ([2]; 1 h): 100%
remaining at 4 h, 10 µM [2]: 95%
Molecule: CNC(=O)[C@H](Cc1cccnc1)NC(=O)[C@H](CCN)NC(=O)[C@@H]1CCC(=O)NCc2ccc(cc2)CC(=O)N[C@@H](C)C(=O)N[C@H]2CCC(=O)NCC[C@H](NC(=O)[C@H](CCC(N)=O)NC(=O)[C@H](Cc3c[nH]c4ccccc34)NC2=O)C(=O)N[C@@H](CCc2ccccc2)C(=O)N[C@@H](Cc2ccc3ccccc3c2)C(=O)NC(C)(C)C(=O)N1 [Compound 41, [4-Aminomethyl-phenylacetyl](1c)*AE(2c)WQ[Dab](2c)[hPhe][2-Nal][Aib]E(1c)[Dab][3-(3-Pyridyl)-Ala]-[NHMe]]

% displacement (hIL-23R binding) [3]: 97%
Molecule: [4‑Aminomethyl‑phenylacetyl]SEWQ[Dab][AEF][2Nal][αMeL]ES[3Pal]-NHMe (lactam N-10, 3-6) [Compound 31]

% displacement (hIL-23R binding) [3]: 102%
B1: Ref 141 (peptide)
peptide: [4‑Aminomethyl‑phenylacetyl][NMeS]CWQC[AEF][2Nal][αMeL]E[Dab]-NH2
modifications: lactam N-10; bridge 3-6; not fully specified (bridges); printed as [4-Aminomethyl-phenylacetyl](1c)*[N-Me-Ser]C(2a)WQC(2a)[Y(2-aminoethoxy)][2-Nal][2-Me-Leu]E(1c)[Dab]-[NH2]

% displacement (hIL-23R binding) [3]: 90%
B2: Compound 34 (peptide)
peptide: [4‑Aminomethyl‑phenylacetyl]SEWQ[Dab][AEF][2Nal][αMeL]EH[3Pal]-NHMe
modifications: lactam N-10, 3-6
SMILES: CNC(=O)[C@H](Cc1cccnc1)NC(=O)[C@H](Cc1c[nH]cn1)NC(=O)[C@@H]1CCC(=O)NCc2ccc(cc2)CC(=O)N[C@@H](CO)C(=O)N[C@H]2CCC(=O)NCC[C@H](NC(=O)[C@H](CCC(N)=O)NC(=O)[C@H](Cc3c[nH]c4ccccc34)NC2=O)C(=O)N[C@@H](Cc2ccc(OCCN)cc2)C(=O)N[C@@H](Cc2ccc3ccccc3c2)C(=O)N[C@@](C)(CC(C)C)C(=O)N1

% displacement (hIL-23R binding) [3]: 97%
B3: Compound 24 (peptide)
peptide: [4‑Aminomethyl‑phenylacetyl]SEWK(Ac)[Dab][AEF][2Nal][αMeL]E[Dab][3Pal]-NHMe
modifications: lactam N-10, 3-6
SMILES: CNC(=O)[C@H](Cc1cccnc1)NC(=O)[C@H](CCN)NC(=O)[C@@H]1CCC(=O)NCc2ccc(cc2)CC(=O)N[C@@H](CO)C(=O)N[C@H]2CCC(=O)NCC[C@H](NC(=O)[C@H](CCCCNC(C)=O)NC(=O)[C@H](Cc3c[nH]c4ccccc34)NC2=O)C(=O)N[C@@H](Cc2ccc(OCCN)cc2)C(=O)N[C@@H](Cc2ccc3ccccc3c2)C(=O)N[C@@](C)(CC(C)C)C(=O)N1

% displacement (hIL-23R binding) [3]: 104%
Molecule: [4‑Aminomethyl‑phenylacetyl]SEW[Q(2Me)][Dab][AEF][2Nal][αMeL]E[Dab][3Pal]-NHMe (lactam N-10, 3-6) [Compound 30]

% displacement (hIL-23R binding) [3]: 105%
Molecule: [βAla][3Pal]SCWQC[AEF][2Nal][αMeL]E[dR]-NH2 (lactam N-11; linker 4-7 via 1,3‑dithio‑propan‑2‑one) [Compound 1]

% displacement (hIL-23R binding) [3]: 100%
B4: Compound 40 (peptide)
peptide: [4‑Aminomethyl‑phenylacetyl]AEWQ[Dab][AEF][2Nal][αMeL]ES[3Pal]-NHMe
modifications: lactam N-10, 3-6
SMILES: CNC(=O)[C@H](Cc1cccnc1)NC(=O)[C@H](CO)NC(=O)[C@@H]1CCC(=O)NCc2ccc(cc2)CC(=O)N[C@@H](C)C(=O)N[C@H]2CCC(=O)NCC[C@H](NC(=O)[C@H](CCC(N)=O)NC(=O)[C@H](Cc3c[nH]c4ccccc34)NC2=O)C(=O)N[C@@H](Cc2ccc(OCCN)cc2)C(=O)N[C@@H](Cc2ccc3ccccc3c2)C(=O)N[C@@](C)(CC(C)C)C(=O)N1

% displacement (hIL-23R binding) [3]: 97%
IC50 [3]: 0.017 nM
Molecule: [4‑Aminomethyl‑phenylacetyl]SEW[Q(pyrrolidin)(3)][Dab][AEF][2Nal][αMeL]E[Dab][3Pal]-NHMe (lactam N-10, 3-6) [Compound 27]

% displacement (hIL-23R binding) [3]: 103%
Molecule: [3Pal][βAla]SCWQC[AEF][2Nal][αMeL]E[dR]-NH2 (lactam N-11; linker 4-7 via 1,3‑dithio‑propan‑2‑one) [Compound 2]

% displacement (hIL-23R binding) [3]: 93%
IC50 [3]: 0.011 nM
Molecule: [4‑Aminomethyl‑phenylacetyl]SEW[Dab](Ac)[Dab][AEF][2Nal][αMeL]E[Dab][3Pal]-NHMe (lactam (positions not given here); lactam 3-6; not fully specified (bridges)) [Compound 25]

% displacement (hIL-23R binding) [3]: 92%
B5: Compound 33 (peptide)
peptide: [4‑Aminomethyl‑phenylacetyl]SEWQ[Dab][AEF][2Nal][αMeL]EQ[3Pal]-NHMe
modifications: lactam N-10, 3-6
SMILES: CNC(=O)[C@H](Cc1cccnc1)NC(=O)[C@H](CCC(N)=O)NC(=O)[C@@H]1CCC(=O)NCc2ccc(cc2)CC(=O)N[C@@H](CO)C(=O)N[C@H]2CCC(=O)NCC[C@H](NC(=O)[C@H](CCC(N)=O)NC(=O)[C@H](Cc3c[nH]c4ccccc34)NC2=O)C(=O)N[C@@H](Cc2ccc(OCCN)cc2)C(=O)N[C@@H](Cc2ccc3ccccc3c2)C(=O)N[C@@](C)(CC(C)C)C(=O)N1

% displacement (hIL-23R binding) [3]: 95%
Molecule: [4‑Aminomethyl‑phenylacetyl]SEW[Cit][Dab][AEF][2Nal][αMeL]E[Dab][3Pal]-NHMe (lactam (positions not given here); lactam 3-6; not fully specified (bridges)) [Compound 26]

% displacement (hIL-23R binding) [3]: 97%
IC50 [3]: 0.011 nM
B6: Compound 28 (peptide)
peptide: [4‑Aminomethyl‑phenylacetyl]SEW[Orn][Dab][AEF][2Nal][αMeL]E[Dab][3Pal]-NHMe
modifications: lactam N-10, 3-6
SMILES: CNC(=O)[C@H](Cc1cccnc1)NC(=O)[C@H](CCN)NC(=O)[C@@H]1CCC(=O)NCc2ccc(cc2)CC(=O)N[C@@H](CO)C(=O)N[C@H]2CCC(=O)NCC[C@H](NC(=O)[C@H](CCCN)NC(=O)[C@H](Cc3c[nH]c4ccccc34)NC2=O)C(=O)N[C@@H](Cc2ccc(OCCN)cc2)C(=O)N[C@@H](Cc2ccc3ccccc3c2)C(=O)N[C@@](C)(CC(C)C)C(=O)N1

% displacement (hIL-23R binding) [3]: 96%
IC50 [3]: 0.011 nM
Molecule: [4‑Aminomethyl‑phenylacetyl]SEW[Q(Me)][Dab][AEF][2Nal][αMeL]E[Dab][3Pal]-NHMe (lactam N-10, 3-6; reading uncertain) [Compound 29]
